Where a chain is given by its changes, count along the chain named.
B1: WT: wild-type human L-selectin, C-terminally tagged with GFP or RFP, expressed in THP-1 cells (protein)
chain: WTYHYSEKPMNWQRARRFCRDNYTDLVAIQNKAEIEYLEKTLPFSRSYYWIGIRKIGGIWTWVGTNKSLTEEAENWGDGEPNNKKNKEDCVEIYIKRNKDAGKWNDDACHKLKAALCYTASCQPWSCSGHGECVEIINNYTCNCDVGYYGPQCQFVIQCEPLEAPELGTMDCTHPLGNFSFSSQCAFSCSEGTNLTGIEETTCGPFGNWSSPEPTCQVIQCEPLSAPDLGIMNCSHPLASFSFTSACTFICSEGTELIGKKKTICESSGIWSNPSPICQKLDKSFSMIKEGDYNPLFIPVAVMVTAFSGLAFIIWLARRLKKGKKSKRSMNDPY
modifications: left off: eGFP (donor copy) or mCherry (acceptor copy, called RFP), C-terminal, kept
B2: SSAA: L-selectin with Ser^364 and Ser^367 both mutated to alanines (protein)
chain: B1 chain with S326A, S329A
modifications: left off: eGFP (donor copy) or mCherry (acceptor copy, called RFP), C-terminal, kept

Tested on: THP-1 cells
Assay: Antibody-mediated clustering (AMC) of L-selectin-GFP/RFP, FLIM/FRET
Assay type: cell-based, human
Settings: for change in FRET efficiency on AMC or versus comparator (in words) / FRET efficiency after AMC: DREG56 plus secondary antibody; for FRET efficiency after AMC: 10 min at 37°C, GFP/RFP pair
Description: (A) Schematic representation of the cleavage site, transmembrane domain (TMD), and cytoplasmic tail of human L-selectin. Red underlined region of the cleavage site denotes the amino acids that are deleted in ΔM-N L-selectin. […] Red arrow points to the position of the cut site of the L-selectin cleavage domain. (B) Cells expressing matched levels of L-selectin-GFP/RFP in the following forms: WT, ΔM-N, SSAA, ΔM-N^SSAA, and R357A were subjected to AMC using Alexa Fluor 647-conjugated DREG56 or isotype-matched control, followed by goat anti-mouse secondary antibody (see Materials and Methods for more detail). Cells were plated onto poly-L-lysine-coated coverslips and prepared for FLIM/FRET analysis (see materials and methods). FLIM was used to measure the FRET efficiency between the GFP/RFP donor/acceptor pairs as a direct function of cytoplasmic tail clustering […]. At least 45 individual cells were analyzed over 3 independent clustering assays. (C) Representative images are shown for each cell line. The lifetime of fluorescence (Lftm) is expressed in a pseudocolour scale from red (low lifetime with a very high probability of interaction) to blue (high lifetime with a very low probability of interaction). […] Cells were lysed directly in protein loading buffer (containing the reducing agent, dithiothreitol) and resolved onto standard (lower panel) or phos-tag (upper panel) polyacrylamide gels. Antibodies to GFP and RFP were used to, respectively, probe ΔM-N and ΔM-N^SSAA on Western blots. […] Statistics: One-Way ANOVA Tukey's multiple comparison test. **p ≤ 0.01; ***p ≤ 0.001; ****p ≤ 0.0001.
THP-1 cells were adjusted the night before AMC to a density of 0.5 ×10^6 cells per mL. On the same day, 13 mm diameter glass coverslips (thickness “1”) were placed into the base of a 24 well dish, spotted with 100 μL of poly-L-lysine (PLL) to immobilize according to manufacturer's instruction. On the day of the assay, THP-1 cells were counted and adjusted to a density of 1 ×10^6 per mL in 500 μL containing antibody labeling buffer (RPMI culture medium containing FcR block [Miltenyi Biotec]). Cells were labeled with 2 μg per mL DREG56 for 30 min at 4°C, followed by washing (by centrifugation at 300 g and resuspension) in ice cold culture media to remove excess unbound antibody and then incubated back in ice cold labeling buffer containing secondary antibody conjugated to Alexa Fluor […] (Thermo Fisher) for a further 30 min at 4°C. Cells were then washed twice in ice cold neat RPMI and resuspended to 100 μL of neat ice cold RPMI before 80 μL of the cell suspension was seeded onto 13 mm diameter glass coverslips (thickness = “1”), which were pre-coated with PLL-coated the night before. The seeded cells were placed into a humidified cell culture incubator at 37°C and 5% CO2 for 10 min to drive clustering. Adhered cells were flooded in excess 4% paraformaldehyde and fixed for 15 min at room temperature. Fixed coverslips were washed 3 times in PBS and then treated in 10 mg/mL of Sodium Borohydride dissolved in phosphate buffered saline for 10 min at room temperature (to eliminate autofluorescence and enhance signal to noise ratios). Coverslips were subsequently washed in PBS to remove sodium borohydride and mounted using DAKO mounting medium.
FLIM measurement of FRET was performed with a multiphoton microscope system as described previously ([8], [23]). A Nikon TE2000E inverted microscope, combined with an in-house scanner and Chameleon Ti:Sapphire ultrafast pulsed multiphoton laser (Coherent Inc.), was used for excitation of GFP (at 890 nm). Fluorescence lifetime imaging capability was provided by time-correlated, single-photon counting electronics (SPC 700; Becker & Hickl). A 40 × objective (NA 1.3) was used throughout (CFI60 Plan Fluor; Nikon), and data were acquired at 500 ± 20 nm through a bandpass filter (35–5040; Coherent Inc.). […]

[1] = at least 45 cells, 3 independent assays

| Molecule | change in FRET efficiency on AMC or versus comparator (in words) | FRET efficiency after AMC [1] [%] | FRET efficiency without AMC (WT L-selectin-GFP/RFP before AMC (isotype-matched control), at least 45 cells, 3 independent assays) [%] |
| --- | --- | --- | --- |
| B1 | significantly increased the FRET efficiency | 12.39 | 1.35 |
| B2 | modest but significant drop in FRET efficiency compared to WT L-selectin | 9.25 | – |

Source: publication PMC6774396 (Frontiers in Immunology, 2019)
